# Experimental data: patent WO2001072771A2
# No end group written: not given here.
# Assays:
# [1] = target: soluble IGF-1 receptor (human) (UniProt P08069); experiment: phage ELISA
# [2] = target: soluble human insulin receptor (IR-Fc) (human) (UniProt P06213); experiment: phage ELISA
binder,measurement,setting,value
NSRDGGFYLQLERLLGFPVTG [20E2B-3-D4-IGFR],ratio over background,[1],7.9
same,ratio over background,[2],0.8
YRGMLVLGRSSDGAGKVAFERPARIGQTVFAVNFYDWFV [A6L-0-E6-IR],ratio over background,[1],31
LSVALSFYDALGQLVAGEGRW [20E2A-3-A12-IGFR],ratio over background,[1],4.3
SSYGCDGFYLMLFSLGLVASQELEC [20C-3-A1-IGFR],ratio over background,[1],20.8
DRAFYNGLRDLVGAVYGAWD [R20 -4-20C11-IR],ratio over background,[1],30.8
same,ratio over background,[2],3
VGYQGQGDENFYDWFIRQVSGRLGVQ [H2CA-4-F5-IGFR],ratio over background,[1],9.7
same,ratio over background,[2],0.8
PVGVQGFYEGLSRLVLGRGGW [20E2B-4-F8-IGFR],ratio over background,[1],7.3
same,ratio over background,[2],0.8
RGAVAGFHDQFYDWFDRQVSRVHKFG [H2CA-4-H9-IGFR],ratio over background,[1],5.6
RGMKEEVLVGGSTDPFYHKLSELLQGS [B6Hα-3-F11-IR],ratio over background,[1],18.7
GCWEWQKWHGASDPFYHKLSELGGCS [B6Hα-3-F10-IR],ratio over background,[1],8.8
QPDHSYFYSLLQELVGSEERL [20E2B-4-F9-IGFR],ratio over background,[1],14.7
SRVAATKEKRPSDDPFYHKLSELLQGS [B6Hα-3-F7-IR],ratio over background,[1],3.1
YSCGDGFYSLLSDLLGGQFRC [20E2B-4-H12-IGFR],ratio over background,[1],9.7
same,ratio over background,[2],0.8
AGSVTSFYDAMEQLVATGTSA [20E2A-3-A4-IGFR],ratio over background,[1],2.5
NVFVSFYDAIDQLVCQRIGC [20E2A-4-G11-IGFR],ratio over background,[1],3.3
YRGMVLGRISGGAGKAASERPARIGQKVSAVNFYDWFV [A6L-0-H3-IR],ratio over background,[1],26
RFSTDGFYQYLLALVGGGPVG [20E2B-1-A11-IGFR],ratio over background,[1],9.5
same,ratio over background,[2],1
LQPCSGFYECIERLIGVKLSG (not fully specified (bridges); cysteine pairing not given here) [20E2Bβ-4-G7-IR],ratio over background,[1],25.2
QPAPDGFYSALMKLIGRGGVS [20E2B-3-C8-IGFR],ratio over background,[1],15.6
GGTEVDFYRALERLVRGQLGL [20E2B-3-D8-IGFR],ratio over background,[1],17.7
GGTKAVAKVGTRDDPFYHKLSELLQGS [B6Hα-4-G8-IR],ratio over background,[1],6.1
GCITAENGAGDPFYHKLSELGGCS [B6Hα-1-B3-IR],ratio over background,[1],3.2
RCEEKQAEVGPSSDPFYHKMSELLGCR [B6Hα-3-E9-IR],ratio over background,[1],24.2
IIGGFYSYFNSVLRLGT [NNRPγ-4-A1-IR],ratio over background,[1],10.9
